Assays:
[1] = molecular target: Chelator-GID^SR4 (Gid7-Gid4-Gid5-Gid1-Gid8-Gid2-Gid9), Twin-Strep at the C-terminus of Gid8 (S. cerevisiae) (UniProt P53076); test: cryo-EM structure; Cage-GID^SR4 prepared without Gid12, co-expressed in Hi5 cells and purified; 19.8 Å map fitted with three Chelator-GID^SR4 models
[2] = molecular target: Gid12-Chelator-GID^SR4 (Gid12-Gid7-Gid4-Gid5-Gid1-Gid8-Gid2-Gid9), Twin-Strep at the C-terminus of Gid8 (S. cerevisiae) (UniProt Q12027); test: cryo-EM structure; maps of Gid12-GID^SR4 (9.8 Å), Gid12-Chelator-GID^SR4 (19.4 Å) and Gid12-Cage-GID^SR4 (20.6 Å), complexes co-expressed in Hi5 cells and purified; docked with Gid12-SRS and prior structures
[3] = molecular target: PHSVTP-Fbp1 (Fbp1 with its N-terminus exchanged to Mdh2 degron) (S. cerevisiae) (UniProt P09201); test: cryo-EM structure; purified Cage-GID^SR4 at 1 mg/ml with fivefold molar excess of purified PHSVTP-Fbp1 added directly before grid preparation; 12.2 Å; 25 mM HEPES pH 7.5, 50 mM NaCl, 5 mM DTT
[4] = molecular target: T1, 3×HA-Gid4 (endogenously N-terminally HA-tagged Gid4) (S. cerevisiae (endogenous in BY4741), UniProt P38263 1-362); test: affinity purification with mass spectrometry; 3×HA-Gid4 on anti-HA resin, eluted with HA peptide, from BY4741 GID12-9×cMYC lysate; glycolytic conditions, ethanol starvation for 16 h or carbon recovery; iBAQ quantification; settings: partners not purified
T1 construct: Gid4 (Vid24), S. cerevisiae, tagged at the endogenous locus; source: endogenous locus, BY4741 GID12-9×cMYC::kanMX4, 3×HA-GID4 yeast, in lysate; not shown: 3×HA, N-terminal, kept
T1 sequence (looked up): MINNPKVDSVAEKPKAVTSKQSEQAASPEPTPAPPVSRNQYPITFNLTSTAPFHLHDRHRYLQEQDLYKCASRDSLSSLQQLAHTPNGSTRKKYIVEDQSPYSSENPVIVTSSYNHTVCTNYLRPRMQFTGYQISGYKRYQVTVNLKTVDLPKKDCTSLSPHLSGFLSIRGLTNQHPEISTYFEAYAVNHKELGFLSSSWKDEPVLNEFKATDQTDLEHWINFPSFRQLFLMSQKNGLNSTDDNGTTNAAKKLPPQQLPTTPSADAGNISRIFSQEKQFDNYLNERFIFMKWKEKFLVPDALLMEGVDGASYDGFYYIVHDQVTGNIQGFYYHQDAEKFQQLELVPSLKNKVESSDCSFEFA

[5] = molecular target: the molecule itself; test: cryo-EM structure; purified Chelator-GID^SR4 at 0.6 mg/ml with threefold molar excess of purified Mdh2-6×His added directly before grid preparation; 18.9 Å; 25 mM HEPES pH 7.5, 150 mM NaCl, 5 mM DTT

**Q.** “Chelator-GID^SR4 (Gid7-Gid4-Gid5-Gid1-Gid8-Gid2-Gid9), Twin-Strep at the C-terminus of Gid8, P53076 1-958; Q12508 1-421; P38263 1-362; P40547 1-921; P25569 1-745; P40208 1-455; P40492 1-516” was tested. Which stoichiometry N [1] did it give?
**A.** Its stoichiometry N is 3.

**Q.** How did the stoichiometry N [2] turn out when “Gid12-Chelator-GID^SR4 (Gid12-Gid7-Gid4-Gid5-Gid1-Gid8-Gid2-Gid9), Twin-Strep at the C-terminus of Gid8, Q12027 1-708; P53076 1-958; Q12508 1-421; P38263 1-362; P40547 1-921; P25569 1-745; P40208 1-455; P40492 1-516” was run?
**A.** Its stoichiometry N is 3.

**Q.** For “PHSVTP-Fbp1 (Fbp1 with its N-terminus exchanged to Mdh2 degron) (from UniProt P09201 1-348) (enzyme)”, which stoichiometry N [3] is on record?
**A.** Its stoichiometry N is 4.

B1: Gid12-9×cMYC (natural protein, S. cerevisiae (endogenous in BY4741), UniProt Q12027 1-708, looked up)
chain: MATGRIQFAVSTPCNTKGKPSGYRLFEFKNDRLALVPSERGCTKVDVNANIQAFCYLRPNGRDTSISPDATHILDSCDYMVLAKSNGFIEIISNYQYKIKNGLRLAPSYILRCTPEDFESNFFSDYMIAGLEYSQGLLYCCMCSGRIYVFVMNLPTDYIQYKNMYNPMFPDCFFKVHHDNNTTHSSEEEKLFEGSTRYTGRSCSKHICYFLLPIEPSHLRSSPVVSSFCNMYQGLPIYRPSMYLHIERGISTFHINPLDRFCFMTVSPRSPLFIRKIILPLTYVTFLSTFISLKNSIQGDTCGEILSWDNVAQQNGFGSLFSWISNKFTFDTDIINSTIWDDIVKYSGTGMLDSGIVWKQRQGHAKDDIYELFHTQDMLGSSRRNSSFSTASSEPRPLSRRRRESFQALTRDAFRERMDVPCSTKWELDSFIRGLRRNTFMVDFEIVEKISHRNGNDGVNEDDNTTDESDETMTSFLTDNYKKMDIVCIDHFVTLSAFRPRYYDEPIIKIDSLSNKNGSENGTNEEEWAESQMKVDGQVIDDETAQFKQALGNLCSFKKLFMLDDSLCFILDTHGVLLINRFEIKNTKNLLRNSKDTIRIIPHDFGLINDTIVIINDIDVGTDNVCALTFHLVVTSMAGEITVLKGEFFKNCRLGRIKLCDSLKLNRKDRFVDKLALIDYDGLNAQKRRLDYDEKDLYTFIVKKVKRD
notes: Gid12 (Ipf1, YDL176W), S. cerevisiae, tagged at the endogenous locus; The strain name is written GID12-9×cMYC; source: endogenous locus, BY4741 GID12-9×cMYC::kanMX4, 3×HA-GID4 yeast, in lysate
**Q.** B1 was tested. Which “ratio of Gid12 to Gid4 in the Gid4 immunoprecipitate (iBAQ), glycolytic growth conditions” value [4] did it give?
**A.** The value was ~0.2 Gid12:Gid4.

**Q.** What about the “stoichiometry of Gid12 to Gid4 in the Gid4 immunoprecipitate (iBAQ), gluconeogenic growth conditions” value [4] of the same molecule?
**A.** The value was ~1 Gid12:Gid4.

B2: Mdh2-6×His (enzyme, S. cerevisiae, UniProt P22133 2-377, looked up)
chain: PHSVTPSIEQDSLKIAILGAAGGIGQSLSLLLKAQLQYQLKESNRSVTHIHLALYDVNQEAINGVTADLSHIDTPISVSSHSPAGGIENCLHNASIVVIPAGVPRKPGMTRDDLFNVNAGIISQLGDSIAECCDLSKVFVLVISNPVNSLVPVMVSNILKNHPQSRNSGIERRIMGVTKLDIVRASTFLREINIESGLTPRVNSMPDVPVIGGHSGETIIPLFSQSNFLSRLNEDQLKYLIHRVQYGGDEVVKAKNGKGSATLSMAHAGYKCVVQFVSLLLGNIEQIHGTYYVPLKDANNFPIAPGADQLLPLVDGADYFAIPLTITTKGVSYVDYDIVNRMNDMERNQMLPICVSQLKKNIDKGLEFVASRSASS
notes: Mdh2 (malate dehydrogenase), S. cerevisiae; The name is written Mdh2-6×His; also called malate dehydrogenase; source: purified
**Q.** B2 was tested. Which “stoichiometry N” value [5] did it give?
**A.** Its value is 2.

— article PMC9160049, “Cryo-EM structures of Gid12-bound GID E3 reveal steric blockade as a mechanism inhibiting substrate ubiquitylation” (Nature Communications, 2022)
